Experimental findings from the DeepSol protein solubility set are described below.

The data set can be described thus: soluble on expression in E. coli; label from the status in PepcDB or PDB records.
“MAWLNPFWSSPKAYVRPPKRGLAPELWASRIPFTHLENFYEVFRALWENRDNLPYAWRILKDGVCDGCALGTSGLEDWTLHGVHLCNVRLRLLSLNTLPPLDPKVLKDVEALKGRKSRELRRLGRLPYPMLRRKGERGFRRVSWDEAMGLATEYLRRHLPEGAFFYLTSRGVPNETYYVVQKAVRALGCNHVDNAARICHSPSTVVLKEALGVAATTCSYTDLIGTDLVVFLGSNVANNQPVMMKYLYHAKKAGTKVAVVNPYREPGMERYFVPSDLESALFGTRIADRFFQILPGGDIAFLHGAAKWMLEEGWVDPGFIRAHTAGFEAYKALLEAIPFAELEKAAGVSREEMRAFAEMVGRAERAVFVWGMGITQHTHGEDNVRAIVNLALLKGFVGREGCGLMPIRGHSGVQGGAEMGAYATAFPGGLPVNPENARRLAELWGFPVPDRPGLTTPEALDRALEGRLGVLWAIGGDFREVMPDPEAVEEALRRVPLRVHQDIVLSSQMLLEPGECVLLLPATTRYEVPGGVTETSTERRVIFSPEIPGPRPPEARPEWEVFQELVHRLRPELKDRFRFASTAEIREEIARVIPLYEGIQRFKAKGDQFQYGGRRLCEGWRFPTPDGKAHFRPVPLPQKEVPEGAFRVVTRRGKQFNSIVHEDQDPLTGAFRDAVYMNPKDAARLGLKPGDPVVLENAFGRYAGRVYLAEVKEGTLEVHWPEGNVLVDPKARSPLAHIPAYKEILAHLRRGEAEAPSPLRP”: the “soluble on expression in E. coli” value is “soluble”. Take “MRIVEEMVGKEVLDSSAKVIGKVKDVEVDIESQAIESLVLGKGGISEGLGLSKGETIVPYEMVKKIGDKILLKGPEE”: the “soluble on expression in E. coli” value is “not soluble”. To “MNMLEKIQSQLEHLSKSERKVAEVILASPDNAIHSSIAALALEANVSEPTVNRFCRSMDTRGFPDFKLHLAQSLANGTPYVNRNVNEDDSVESYTGKIFESAMATLDHVRHSLDKSAINRAVDLLTQAKKIAFFGLGSSAAVAHDAMNKFFRFNVPVVYSDDIVLQRMSCMNCSDGDVVVLISHTGRTKNLVELAQLARENDAMVIALTSAGTPLAREATLAITLDVPEDTDIYMPMVSRLAQLTVIDVLATGFTLRRGAKFRDNLKRVKEALKESRFDKQLLNLSDDR” belongs “soluble”. As for “MNYKVTAEAIPDYQSKNAPISSYWMPDKFLEWSAENDKDLVYNQSRVPLTKRISPDKLSPSNQNQNKKTKIVALSMMNSQTSGNPSRGTTKFESYTFDYWQYIDTLVYWGGSSGEGIIVTPSADVIDEAHSNGVPVLGTIFLPPKEYGGKVDWVKTMLKKDEQGQYPFASQMVKVAKTYGFEGWFINEETQGLNADDAANMKALIQQVKKEDSSLQIMWYDAMTKDGKVDWQNQLNDQNATFVQDKAADAMFLNFWWTQNNLADQKLLEKSNLYAKNHNIDPYNIYAGIDVQAKDVQTPVKWNLLEKGNQATQTSIGLYAASATYTNASNWDDFQNRESAFWVNQKADPRQVDHSVNESWTGLSKYVLEKSAISGNEFNTNFNLGNGYNYFKAGQKISEMDWNDRSLAGILPSYRWIIDNEGKNKISPSFDFANAYNGGNSLKFMAEHLDAGKLEHHHHHH”, the entry is “not soluble”. For “MAHHHHHHMQPKMTAPLTMKDNNKCLSVRVGSTLEIHLEGNPTTGYTWTRVGFVGKEMLSDEHLEVTSKYTPKPVSGSMVGAGGSYTVFVKPLRKGQHAVQLVYARPFEGPKPDNERYTLHLNVE”, the “soluble on expression in E. coli” value was “soluble”.

For “MSLTSSDVRNKYNFNSDWLLYVGDVPEAKQPRFSDSEWKKVTLPHAFNEDEAFRLSIDELTDTIMWYRKHFRLPANSKNKKVFVEFEGVRQGADFYINGQNVGLHENGVMAVGFDLTPYIKYGQENVIAVRIDNDWNYKERATGTKYQWSNKNFNANYGGIPKNVWLHVTDRLYQTLPLYSNLKTTGVYIYAEDIRVKSRKAIIHAESEIRNEYNRDKQVSYQVELIDRDGTSIQTFEGTKAVVKPGETITLKAASEVDNLHFWSWGYGYLYTVKTSLWVDGRKVDEVATRTGFRKTRFGKGMIWLNDRVIQMKGFAQRTSNEWPGVGMSVPAWLSDYSNHLMVEGNANLVRWMHVTPWKQDIESCDRVGLIQAMQAGDAEKDCEGRQWEQRTELMRDAIIYNRNNPSILFYECGNESISREHMIEMKAIRDLYDPHGGRAIGSREMLDIREAEYGGEMLYINKSAHHPMWAMEYCRDEGLRKYWDDYSYPYHKDGDGSNSYKSTVTNKVQKKVDARVYNRNQDSFTIENIIRWFDYWRERPGTGDRVSSGGVKIIFSDTNTHYRGVENYRRSGVTDAMRIPKDPFFAHQVMWDGWVDTECPRIYIVGHWNYNDTVVKPVYVVSSADKVELFLNGKSLGYGEQDYHFLYTFKDIAFVPGRLEAVGYDENGKECCRTQLQTAGKPEQIQLSFIQSPEGWKADGADMVLLQVEVMDKDGNRCPLANDLIHFEVEGPAEWRGGIAQGENNYILSKDLPVECGINRALIRSLTTAGNVRITAKADGLKPAEISLTSSPVEVKNGLSNYIPGDELEGRLTRGETPQTPSYKVSKVDVGIVSAIAGANNESTVNSFDDNELSEWRNDGKAATAWITYKLERAARVDEVCMKLTGWRMRSYPLEIYAGKELIWSGDTDKSLGYVHLDVKPVLTNEITIRLKGTSKEGDAFGQIVEVAAPVANELDLFKAKDGDKTGHELRIVEIEFKENLLKEGHHHHHH”, the “soluble on expression in E. coli” value is “soluble”. To “MATLTEDDVLEQLDAQDNLFSFMKTAHSILLQGIRQFLPSLFVDNDEEIVEYAVKPLLAQSGPLDDIDVALRLIYALGKMDKWLYADITHFSQYWHYLNEQDETPGFADDITWDFISNVNSITRNATLYDALKAMKFADFAVWSEARFSGMVKTALTLAVTTTLKELTP” belongs “soluble”; to “MVGLLVEDTIDDQGWNRKAYEGLLNIHSNLDVDVVLEEGVNSEQKAHRRIKELVDGGVNLIFGHGHAFAEYFSTIHNQYPDVHFVSFNGEVKGENITSLHFEGYAMGYFGGMVAASMSETHKVGVIAAFPWQPEVEGFVDGAKYMNESEAFVRYVGEWTDADKALELFQELQKEQVDVFYPAGDGYHVPVVEAIKDQGDFAIGYVGDQADLGGSTILTSTVQHVDDLYVLVAKRFQEGKLESGNLYYDFQDGVVSLGEFSSVVPDEVREQITDAISTYIQTGQFPHEEER”, “soluble”. As for “MGSDKIHHHHHHMAVVFPSKEWMEELYKKVNADEEYRRVAANWEGDYLCVVELDEEALRDFQNPKVLRGFLGMLDSIPKEKRERFRGTPSEKLLEALGLSLDSDLSDANVEEIAKKIAENPDKILEAAKGASLNIWMDFWHGDFRNIEVAAPGEHEDAKFKLIGPYAVFKQLVMGKADAITLVVSGKLKLQGDMGYMMRNMATVKKFTDLMASIPIET”, the “soluble on expression in E. coli” value was “not soluble”.

Consider “MGEHKNCKCNRWVISLQAAFDRDDFEKLFRKAVQSITEEEFQRIPEFRHREDALACLFGRLLLRHSAQKFSGEPWNTIRFERTERGKPFLAVPADTTFGLNVSHQGDYVAFASSCSSKVGVDVMRLDNERNNKTADEYINSMAKSASPEELRMMRSQPTEAMKMTMFYRYWCLKEAILKATGVGIMKDLNSLDFRVNLQDRYRPGAFVTSTTVLEDGRLQDQWIFEETFVDAKHSAAVCKEKKLPRECVFRQDPEAKIFFSKITFESLLENAEITNPMPNNAADIFEEFMAKPKKTF”, for which the “soluble on expression in E. coli” value is reported as “not soluble”. As to “MVVLVTRSLLPALFFASRAPFAAATTSARFQRGLATMAAEAFTKHEVIPDVLASNPPSKVVSVKFNSGVEANLGNVLTPTQVKDTPEVKWDAEPGALYTLIKTDPDAPSRKEPTYREWHHWLVVNIPGNDIAKGDTLSEYIGAGPPPKTGLHRYVYLIYKQSGRIEDAEHGRLTNTSGDKRGGWKAADFVAKHKLGAPVFGNLFQAEYDDYVPILNKQLGA”, the “soluble on expression in E. coli” value is given as “not soluble”. For the sequence “MGSDKIHHHHHHMSSEQIIASLKELVATPENPGKVLTDPADLDNYGKDWTKIYPPKPLAIVLPKTTEQVQALVKFANENQVALVPSGGRTGLSAGAVAANGEVVVAFDNMNQILDFNASDRTVRCQAGVVTEQLQTFAEENGLYYPVDFASAGSSQLGGNLSTNAGGIKVIRWGMSRDWVAGLKVVTGKGDVLDLNKDLAKNNTGYDLRHLFIGAEGTLGFITEATMKLTRKPDDLTVLVLGLNDLTNTMDVLQAFQKKLDLTAYEFFSHQAMGHVLAHGQVQAPFETEAPYYALLEFEAVSDQVMDDAMALFEQCVEEGWVLDGVISQSETQAQNLWQLRERISESIAPRIPYKNDISVVVSKVPGFLQEIDNVVTEHYPDFEIIWFGHIGDGNLHLNILKPEDMAKEDFFEKCQQVNKWVFEIVERYQGSVSAEHGVGMTKKPYLQYTRSEAEIAYLRGIKQVFDPNNIMNPGKIFD”, the “soluble on expression in E. coli” value is given as “not soluble”. With “MAAWTPDLEAELSQLLKDWLKQQGRTQADLRRSLKAVSTRMPALLEVLEREHRLNGLSGLLARLCRVETEWHGGADHTSEAAEQSDPFGQLDLLLQEIRQDCPS”, the “soluble on expression in E. coli” value is given as “not soluble”. With “MASMKKSTENESTNYQYKIQELRKLLKSLLLNYLELIGVLSINPDMYERKVENIRTILVNIHHLLNEYRPHQSRESLIMLLEEQLEYKRGEIREIEQVCKQVHDKLTS”, the “soluble on expression in E. coli” value was “soluble”. As for “MGSDKIHHHHHHMLKHLDNITDCRSHINQEHDVIDICFLVLSAVISGAQSWSACHEFGTLELEWLRKYRPFTNGIPSQQSIGRIFRGVSKQSLLDALMSWVNEYRVNTGQSSIAIDGKVLKGAKASASSAALHMVTAYDTGSGLVFSAKSGASKKSELKLVQELLTCLDLKSELLTFDALHCQSQTLDYIAKEGGDCILQVKGNQPKLYEALQAQFTDYIENNPDAECFTETNKGHGRVEKRITFQCPLNLPAEIKMKWSQLKTLIAVERHRKVGNKTSIDTHFYVSSAVLTSEAFGRAIRAHWQTENNQHWLLDKLFQEDKQKMYDEDGASILAILRRWALNLVKLHPAKTSQTQKFNRACWSDDFREEIIFGTGQKV”, the “soluble on expression in E. coli” value is given as “not soluble”. With “MAQSNTTTTTLVVKSEDQEEVQEEHVLRLRAPPSPPHVTWAEGVVDNEHMGRLKSNCCCIYVAPRQWDDPSTWEPNEYETEHCRGHTLPERKKKKEDGGDEGDDENKENKDNKDNKDNKDNKDNNGCGCDHC”, the “soluble on expression in E. coli” value is “not soluble”.

For “MDIGDNSKFDSATDLPVEQEQEQETEQEGEPEESSEQDLVEEVDWKDIPVPADAGPNMKWEFQEISDNFEYEAPADNKGSEFLEKWDDFYHNAWAGPGLTEWKRDRSYVADGELKMWATRKPGSDKINMGCITSKTRVVYPVYIEARAKVMNSTLASDVWLLSADDTQEIDILEAYGADYSESAGKDHSYFSKKVHISHHVFIRDPFQDYQPKDAGSWFEDGTVWNKEFHRFGVYWRDPWHLEYYIDGVLVRTVSGKDIIDPKHFTNTTDPGNTEIDTRTGLNKEMDIIINTEDQTWRSSPASGLQSNTYTPTDNELSNIENNTFGVDWIRIYKPVEKLEHHHHHH”, the “soluble on expression in E. coli” value is given as “soluble”.

On to “GHMASNVANDGERPSRVVELTDETFDSIVMDPEKDVFVLYYVPWSRHSVAAMRLWDDLSMSQSQKRNHLTFVAARIDGEKYPDVIERMRVSGFPTMRYYTRIDKQEPFEYSGQRYLSLVDSFVFQNT”, for which the “soluble on expression in E. coli” value was “soluble”.

Regarding “MHHHHHHSSGVDLGTENLYFQSMSSVTASAAPGTASLVPDYWIDGSNRDALSDFFEVESELGRGATSIVYRCKQKGTQKPYALKVLKKTVDKKIVRTEIGVLLRLSHPNIIKLKEIFETPTEISLVLELVTGGELFDRIVEKGYYSERDAADAVKQILEAVAYLHENGIVHRDLKPENLLYATPAPDAPLKIADFGLSKIVEHQVLMKTVCGTPGYCAPEILRGCAYGPEVDMWSVGIITYILLCGFEPFYDERGDQFMFRRILNCEYYFISPWWDEVSLNAKDLVRKLIVLDPKKRLTTFQALQHPWVTGKAANFVHMDTAQKKLQEFNARRKLKAAVKAVVASSRLG”, the “soluble on expression in E. coli” value is listed as “soluble”. Consider “MNILKIRHGQGHIAKIEAQSFVDGEGVRCSLYVSGCPFACENCYNKVAQNFKYGEPFHEDTLEEIMEYCAPNYISGLSILGGEPFCNVDITLKCAQTFRKRFGNTKSLWVWTGFLFEYLERDSAERKTLLELIDVLVDGPFINHLYRPNLPYKGSMNQRVIDVQASLQKRRVCEYIKSLEHHHHHH”, for which the “soluble on expression in E. coli” value is “not soluble”.
